In this test the target is αvβ3 integrin (human) (UniProt P06756). Kind of test: cell-based or functional assay.
Chain of αvβ3 integrin (human) (P06756 31-1048, chain 1 of 2): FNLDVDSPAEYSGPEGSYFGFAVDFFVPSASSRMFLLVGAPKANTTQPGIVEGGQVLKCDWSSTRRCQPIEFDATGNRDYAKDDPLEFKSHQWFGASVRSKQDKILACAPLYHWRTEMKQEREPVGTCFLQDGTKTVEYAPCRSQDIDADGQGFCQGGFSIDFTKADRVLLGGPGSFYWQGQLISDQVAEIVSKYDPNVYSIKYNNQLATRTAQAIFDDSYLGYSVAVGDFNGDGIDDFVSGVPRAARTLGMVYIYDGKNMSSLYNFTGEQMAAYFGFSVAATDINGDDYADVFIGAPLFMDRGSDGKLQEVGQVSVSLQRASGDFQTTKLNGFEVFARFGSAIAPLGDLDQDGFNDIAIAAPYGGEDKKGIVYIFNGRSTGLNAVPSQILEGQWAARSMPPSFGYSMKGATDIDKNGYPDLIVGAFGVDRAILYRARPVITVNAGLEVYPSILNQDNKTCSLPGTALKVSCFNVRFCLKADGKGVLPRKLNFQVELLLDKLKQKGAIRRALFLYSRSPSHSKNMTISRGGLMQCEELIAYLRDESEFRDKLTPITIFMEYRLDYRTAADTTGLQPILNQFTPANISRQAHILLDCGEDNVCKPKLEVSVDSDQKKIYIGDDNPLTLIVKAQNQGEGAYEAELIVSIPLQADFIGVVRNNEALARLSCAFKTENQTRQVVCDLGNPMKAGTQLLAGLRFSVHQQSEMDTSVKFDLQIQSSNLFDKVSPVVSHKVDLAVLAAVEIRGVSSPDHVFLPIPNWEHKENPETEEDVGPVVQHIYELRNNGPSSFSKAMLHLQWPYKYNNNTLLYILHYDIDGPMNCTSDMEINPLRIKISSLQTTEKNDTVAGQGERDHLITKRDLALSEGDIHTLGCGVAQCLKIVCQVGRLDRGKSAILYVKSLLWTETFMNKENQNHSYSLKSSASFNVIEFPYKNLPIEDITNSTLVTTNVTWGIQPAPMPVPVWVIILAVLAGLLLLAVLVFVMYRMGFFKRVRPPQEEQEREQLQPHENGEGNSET
Chain of αvβ3 integrin (human) (P05106 27-788, chain 2 of 2, further chain): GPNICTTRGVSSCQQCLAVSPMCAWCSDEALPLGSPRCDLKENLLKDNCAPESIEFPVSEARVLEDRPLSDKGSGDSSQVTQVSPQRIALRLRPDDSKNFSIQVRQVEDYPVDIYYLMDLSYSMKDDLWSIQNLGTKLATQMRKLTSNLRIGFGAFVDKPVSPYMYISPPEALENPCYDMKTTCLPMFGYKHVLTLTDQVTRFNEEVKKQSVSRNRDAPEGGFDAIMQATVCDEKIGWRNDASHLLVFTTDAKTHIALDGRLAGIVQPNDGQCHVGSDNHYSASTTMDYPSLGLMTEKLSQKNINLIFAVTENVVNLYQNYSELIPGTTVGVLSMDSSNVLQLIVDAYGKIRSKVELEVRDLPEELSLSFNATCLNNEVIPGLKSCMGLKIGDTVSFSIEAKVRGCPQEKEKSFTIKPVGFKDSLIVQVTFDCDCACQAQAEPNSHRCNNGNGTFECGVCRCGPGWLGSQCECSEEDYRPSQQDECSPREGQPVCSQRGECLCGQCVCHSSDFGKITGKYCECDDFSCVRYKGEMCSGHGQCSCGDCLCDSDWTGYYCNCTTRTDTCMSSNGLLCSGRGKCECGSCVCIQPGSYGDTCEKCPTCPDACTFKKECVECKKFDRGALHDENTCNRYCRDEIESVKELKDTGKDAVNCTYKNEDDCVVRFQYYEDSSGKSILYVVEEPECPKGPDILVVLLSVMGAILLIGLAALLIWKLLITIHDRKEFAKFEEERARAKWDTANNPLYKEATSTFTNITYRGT

The substance “Regenin (regenin protein that expresses four of the fourth fas-1 domains of βig-h3)” gave a 70%-inhibition of tube formation (HUVECs on Matrigel) of 5 µM and a half-inhibition of migration toward vitronectin (HUVECs, transwell) of 5 µM.

These data come from patent US20070167369A1, “Novel use of isolated polypeptide comprising four FAS-1 domains, EM1 domain and RGD motif” (KYUNGPOOK NATIONAL UNIVERSITY INDUSTRY-ACADEMIC COOPERATION …, priority 2004, published 2007).
